Assay results taken from article PMC7141649.
pKd: −log10 of the molar value.

Target: actin (coated on the BLI biosensor)
Test: BLI; Octet RED, 25°C; APS biosensor coated with actin; rWLP (1 mM) in PBS pH 7.4 with 0.05% Tween 20 and 0.1% BSA; 300 s association, 120 s dissociation

Question: How did the pKd turn out when “recombinant whirlin-like protein (as used in biolayer interferometry) (natural protein)” was run?
Answer: 6.71
